Here are results for one protein from paper PMC9600267, “The Antibacterial Type VII Secretion System of Bacillus subtilis: Structure and Interactions of the Pseudokinase YukC/EssB” (mBio, 2022).

The data set concerns the molecule itself. Kind of data set: crystal structure; hanging-drop vapor diffusion at 4°C; 20 mg/mL YukC413 in 25 mM HEPES pH 8, 175 mM NaCl, 0.04% Cymal-6 with 0.1 M MgCl2, 50 mM HEPES pH 7.5, 15% PEG 2000; molecular replacement.

B1: YukC413 (YukC lacking the last 38 residues), Strep-tagged (pRSF/yukC413.strep) (domain or fragment, Bacillus subtilis 168, UniProt P71070 1-413, looked up)
chain: MSGEQKSYLENQLEAVAEKTDAGYTFTFQREKIKLLDGLEANVIKDINPFFHKEIDVTDDEVIITIQPPSSYKAFRFMKAKDKKSKWQFAYQLVQAVQQHNLSRLNLIVAPENIVFDKGLTPYFLHYGVKESIPPYERDEERVWQELKAAAALAVDGAFAFEDYLKFNETLTFSAEAKAILDAESYDDLLELIQTHIDELEAKAKTYIHIPRKKWNIQRYIGLGLIVLLVPALIYSMYALFFAQPKHQAIVDSNRAFLNKQYSEVISTLSKYDAESLPESVQYQLATSYVEVENLGSAKTKNIENNLVTLQSDPQHFLYWIDYGRGEYKEAISIGRKLEYNDYIYFALAKYKQQLLSEDTNDEDIQKELDSVNSELEKAQKERQENKQSNSETSLVDTSEEQTQTDEEKQAEE
notes: YukC (EssB) of Bacillus subtilis 168 lacking the last 38 residues at the C terminus; In the model 384 (chain A) and 377 (chain B) residues are assigned; source: E. coli BL21(DE3); purified from Cymal-6-solubilized membranes (StrepTrap, Superdex 200) for crystallization; coexpressed with YukE.his and solubilized with Triton X-100 for copurification
In the case of B1, the binding result is “binds”.
